Assay results taken from PMC5548930.

T1: Gαi3 protein, P08754
T1 chain: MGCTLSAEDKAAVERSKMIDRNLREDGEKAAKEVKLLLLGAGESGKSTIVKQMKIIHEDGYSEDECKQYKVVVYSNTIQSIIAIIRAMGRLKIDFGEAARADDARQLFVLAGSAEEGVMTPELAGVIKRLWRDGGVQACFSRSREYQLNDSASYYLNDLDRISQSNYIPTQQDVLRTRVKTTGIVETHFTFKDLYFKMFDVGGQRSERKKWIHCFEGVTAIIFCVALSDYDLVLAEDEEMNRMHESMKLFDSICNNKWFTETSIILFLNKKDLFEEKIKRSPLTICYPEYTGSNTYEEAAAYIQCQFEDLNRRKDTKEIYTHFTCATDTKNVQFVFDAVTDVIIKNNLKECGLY

T2: C-terminally biotinylated endothelin-1
T2 chain: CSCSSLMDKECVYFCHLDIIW


Tests used:
[1] = target: Endothelin-1 (Homo sapiens) (UniProt P05305); details: cited from earlier work
Gαi3 protein, P08754 = target: T1, Gαi3 protein, P08754; assay: ELISA (immobilized Gαi3, bound P9-ETA detected with anti-P9 antibody); details: chain shown with the change; 1 μM mutant; parent: est. 100; read off a plot
[2] = target: T2, C-terminally biotinylated endothelin-1; assay: ELISA (immobilized purified P9-ETA proteins, bET-1 detected with SA-HRP); details: chain shown with the change; 5 μM bET-1; proteins reconstituted with APG; parent: est. 100; read off a plot

| Molecule | percent of parent (Gαi3 protein, P08754) | percent of parent [2] | Kd [1] |
| --- | --- | --- | --- |
| Endothelin receptor type A (P9-ETA fusion) (from UniProt P25101) | – | – | 60 nM |
| wild type P9-ETA (human endothelin receptor type A with N-terminal P9 fusion), P25101 G261W (protein) DNPERYSTNLSNHVDDFTTFRGTELSFLVTTHQPTNLVLPSNGSMHNYCPQQTKITSAFKYINTVISCTIFIVGMVGNATLLRIIYQNKCMRNGPNALIASLALGDLIYVVIDLPINVFKLLAGRWPFDHNDFGVFLCKLFPFLQKSSVGITVLNLCALSVDRYRAVASWSRVQGIGIPLVTAIEIVSIWILSFILAIPEAIGFVMVPFEYRGEQHKTCMLNATSKFMEFYQDVKDWWLFWFYFCMPLVCTAIFYTLMTCEMLNRRNGSLRIALSEHLKQRREVAKTVFCLVVIFALCWFPLHLSRILKKTVYNEMDKNRCELLSFLLLMDYIGINLATMNSCINPIALYFVSKKFKNCFQSCLCCCCYQSKSLMTSVPMNGTSIQWKNHDQNNHNTDRSSHKDSMN | 110 % of w.t | 31 % of w.t | – |
| wild type P9-ETA (human endothelin receptor type A with N-terminal P9 fusion), P25101 F346C (protein) DNPERYSTNLSNHVDDFTTFRGTELSFLVTTHQPTNLVLPSNGSMHNYCPQQTKITSAFKYINTVISCTIFIVGMVGNATLLRIIYQNKCMRNGPNALIASLALGDLIYVVIDLPINVFKLLAGRWPFDHNDFGVFLCKLFPFLQKSSVGITVLNLCALSVDRYRAVASWSRVQGIGIPLVTAIEIVSIWILSFILAIPEAIGFVMVPFEYRGEQHKTCMLNATSKFMEFYQDVKDWWLFGFYFCMPLVCTAIFYTLMTCEMLNRRNGSLRIALSEHLKQRREVAKTVFCLVVIFALCWFPLHLSRILKKTVYNEMDKNRCELLSCLLLMDYIGINLATMNSCINPIALYFVSKKFKNCFQSCLCCCCYQSKSLMTSVPMNGTSIQWKNHDQNNHNTDRSSHKDSMN | 140 % of w.t | 26 % of w.t | – |
| wild type P9-ETA (human endothelin receptor type A with N-terminal P9 fusion), P25101 C69S (protein) DNPERYSTNLSNHVDDFTTFRGTELSFLVTTHQPTNLVLPSNGSMHNYSPQQTKITSAFKYINTVISCTIFIVGMVGNATLLRIIYQNKCMRNGPNALIASLALGDLIYVVIDLPINVFKLLAGRWPFDHNDFGVFLCKLFPFLQKSSVGITVLNLCALSVDRYRAVASWSRVQGIGIPLVTAIEIVSIWILSFILAIPEAIGFVMVPFEYRGEQHKTCMLNATSKFMEFYQDVKDWWLFGFYFCMPLVCTAIFYTLMTCEMLNRRNGSLRIALSEHLKQRREVAKTVFCLVVIFALCWFPLHLSRILKKTVYNEMDKNRCELLSFLLLMDYIGINLATMNSCINPIALYFVSKKFKNCFQSCLCCCCYQSKSLMTSVPMNGTSIQWKNHDQNNHNTDRSSHKDSMN | 97 % of w.t | 59 % of w.t | – |
| wild type P9-ETA (human endothelin receptor type A with N-terminal P9 fusion), P25101 D35N (protein) DNPERYSTNLSNHVNDFTTFRGTELSFLVTTHQPTNLVLPSNGSMHNYCPQQTKITSAFKYINTVISCTIFIVGMVGNATLLRIIYQNKCMRNGPNALIASLALGDLIYVVIDLPINVFKLLAGRWPFDHNDFGVFLCKLFPFLQKSSVGITVLNLCALSVDRYRAVASWSRVQGIGIPLVTAIEIVSIWILSFILAIPEAIGFVMVPFEYRGEQHKTCMLNATSKFMEFYQDVKDWWLFGFYFCMPLVCTAIFYTLMTCEMLNRRNGSLRIALSEHLKQRREVAKTVFCLVVIFALCWFPLHLSRILKKTVYNEMDKNRCELLSFLLLMDYIGINLATMNSCINPIALYFVSKKFKNCFQSCLCCCCYQSKSLMTSVPMNGTSIQWKNHDQNNHNTDRSSHKDSMN | 92 % of w.t | 29 % of w.t | – |
| wild type P9-ETA (human endothelin receptor type A with N-terminal P9 fusion), P25101 F161L (protein) DNPERYSTNLSNHVDDFTTFRGTELSFLVTTHQPTNLVLPSNGSMHNYCPQQTKITSAFKYINTVISCTIFIVGMVGNATLLRIIYQNKCMRNGPNALIASLALGDLIYVVIDLPINVFKLLAGRWPFDHNDFGVFLCKLLPFLQKSSVGITVLNLCALSVDRYRAVASWSRVQGIGIPLVTAIEIVSIWILSFILAIPEAIGFVMVPFEYRGEQHKTCMLNATSKFMEFYQDVKDWWLFGFYFCMPLVCTAIFYTLMTCEMLNRRNGSLRIALSEHLKQRREVAKTVFCLVVIFALCWFPLHLSRILKKTVYNEMDKNRCELLSFLLLMDYIGINLATMNSCINPIALYFVSKKFKNCFQSCLCCCCYQSKSLMTSVPMNGTSIQWKNHDQNNHNTDRSSHKDSMN | 120 % of w.t | 50 % of w.t | – |

Second part, led by results:

| percent of parent (Gαi3 protein, P08754) | percent of parent [2] | Molecule | Kd [1] |
| --- | --- | --- | --- |
| 130 % of w.t | 42 % of w.t | wild type P9-ETA (human endothelin receptor type A with N-terminal P9 fusion), P25101 N29D (protein) DNPERYSTDLSNHVDDFTTFRGTELSFLVTTHQPTNLVLPSNGSMHNYCPQQTKITSAFKYINTVISCTIFIVGMVGNATLLRIIYQNKCMRNGPNALIASLALGDLIYVVIDLPINVFKLLAGRWPFDHNDFGVFLCKLFPFLQKSSVGITVLNLCALSVDRYRAVASWSRVQGIGIPLVTAIEIVSIWILSFILAIPEAIGFVMVPFEYRGEQHKTCMLNATSKFMEFYQDVKDWWLFGFYFCMPLVCTAIFYTLMTCEMLNRRNGSLRIALSEHLKQRREVAKTVFCLVVIFALCWFPLHLSRILKKTVYNEMDKNRCELLSFLLLMDYIGINLATMNSCINPIALYFVSKKFKNCFQSCLCCCCYQSKSLMTSVPMNGTSIQWKNHDQNNHNTDRSSHKDSMN | – |
| 120 % of w.t | 3 % of w.t | wild type P9-ETA (human endothelin receptor type A with N-terminal P9 fusion), P25101 M65K (protein) DNPERYSTNLSNHVDDFTTFRGTELSFLVTTHQPTNLVLPSNGSKHNYCPQQTKITSAFKYINTVISCTIFIVGMVGNATLLRIIYQNKCMRNGPNALIASLALGDLIYVVIDLPINVFKLLAGRWPFDHNDFGVFLCKLFPFLQKSSVGITVLNLCALSVDRYRAVASWSRVQGIGIPLVTAIEIVSIWILSFILAIPEAIGFVMVPFEYRGEQHKTCMLNATSKFMEFYQDVKDWWLFGFYFCMPLVCTAIFYTLMTCEMLNRRNGSLRIALSEHLKQRREVAKTVFCLVVIFALCWFPLHLSRILKKTVYNEMDKNRCELLSFLLLMDYIGINLATMNSCINPIALYFVSKKFKNCFQSCLCCCCYQSKSLMTSVPMNGTSIQWKNHDQNNHNTDRSSHKDSMN | – |
| 110 % of w.t | 18 % of w.t | wild type P9-ETA (human endothelin receptor type A with N-terminal P9 fusion), P25101 K140I (protein) DNPERYSTNLSNHVDDFTTFRGTELSFLVTTHQPTNLVLPSNGSMHNYCPQQTKITSAFKYINTVISCTIFIVGMVGNATLLRIIYQNKCMRNGPNALIASLALGDLIYVVIDLPINVFILLAGRWPFDHNDFGVFLCKLFPFLQKSSVGITVLNLCALSVDRYRAVASWSRVQGIGIPLVTAIEIVSIWILSFILAIPEAIGFVMVPFEYRGEQHKTCMLNATSKFMEFYQDVKDWWLFGFYFCMPLVCTAIFYTLMTCEMLNRRNGSLRIALSEHLKQRREVAKTVFCLVVIFALCWFPLHLSRILKKTVYNEMDKNRCELLSFLLLMDYIGINLATMNSCINPIALYFVSKKFKNCFQSCLCCCCYQSKSLMTSVPMNGTSIQWKNHDQNNHNTDRSSHKDSMN | – |
| 93 % of w.t | 66 % of w.t | wild type P9-ETA (human endothelin receptor type A with N-terminal P9 fusion), P25101 L59P (protein) DNPERYSTNLSNHVDDFTTFRGTELSFLVTTHQPTNLVPPSNGSMHNYCPQQTKITSAFKYINTVISCTIFIVGMVGNATLLRIIYQNKCMRNGPNALIASLALGDLIYVVIDLPINVFKLLAGRWPFDHNDFGVFLCKLFPFLQKSSVGITVLNLCALSVDRYRAVASWSRVQGIGIPLVTAIEIVSIWILSFILAIPEAIGFVMVPFEYRGEQHKTCMLNATSKFMEFYQDVKDWWLFGFYFCMPLVCTAIFYTLMTCEMLNRRNGSLRIALSEHLKQRREVAKTVFCLVVIFALCWFPLHLSRILKKTVYNEMDKNRCELLSFLLLMDYIGINLATMNSCINPIALYFVSKKFKNCFQSCLCCCCYQSKSLMTSVPMNGTSIQWKNHDQNNHNTDRSSHKDSMN | – |
| 160 % of w.t | 130 % of w.t | wild type P9-ETA (human endothelin receptor type A with N-terminal P9 fusion), P25101 S213L (protein) DNPERYSTNLSNHVDDFTTFRGTELSFLVTTHQPTNLVLPSNGSMHNYCPQQTKITSAFKYINTVISCTIFIVGMVGNATLLRIIYQNKCMRNGPNALIASLALGDLIYVVIDLPINVFKLLAGRWPFDHNDFGVFLCKLFPFLQKSSVGITVLNLCALSVDRYRAVASWSRVQGIGIPLVTAIEIVSIWILLFILAIPEAIGFVMVPFEYRGEQHKTCMLNATSKFMEFYQDVKDWWLFGFYFCMPLVCTAIFYTLMTCEMLNRRNGSLRIALSEHLKQRREVAKTVFCLVVIFALCWFPLHLSRILKKTVYNEMDKNRCELLSFLLLMDYIGINLATMNSCINPIALYFVSKKFKNCFQSCLCCCCYQSKSLMTSVPMNGTSIQWKNHDQNNHNTDRSSHKDSMN | – |
